Source: patent US20080085863A1 (WISCONSIN ALUMNI RESEARCH FOUNDATION, published 2008)

Legend:
[1] = biological target: T1, Flag-tagged recombinant bone morphogenetic protein-1 (BMP-1) (UniProt P13497-2 121-730, limits assumed); test: cell-based or functional assay
T1 sequence (looked up): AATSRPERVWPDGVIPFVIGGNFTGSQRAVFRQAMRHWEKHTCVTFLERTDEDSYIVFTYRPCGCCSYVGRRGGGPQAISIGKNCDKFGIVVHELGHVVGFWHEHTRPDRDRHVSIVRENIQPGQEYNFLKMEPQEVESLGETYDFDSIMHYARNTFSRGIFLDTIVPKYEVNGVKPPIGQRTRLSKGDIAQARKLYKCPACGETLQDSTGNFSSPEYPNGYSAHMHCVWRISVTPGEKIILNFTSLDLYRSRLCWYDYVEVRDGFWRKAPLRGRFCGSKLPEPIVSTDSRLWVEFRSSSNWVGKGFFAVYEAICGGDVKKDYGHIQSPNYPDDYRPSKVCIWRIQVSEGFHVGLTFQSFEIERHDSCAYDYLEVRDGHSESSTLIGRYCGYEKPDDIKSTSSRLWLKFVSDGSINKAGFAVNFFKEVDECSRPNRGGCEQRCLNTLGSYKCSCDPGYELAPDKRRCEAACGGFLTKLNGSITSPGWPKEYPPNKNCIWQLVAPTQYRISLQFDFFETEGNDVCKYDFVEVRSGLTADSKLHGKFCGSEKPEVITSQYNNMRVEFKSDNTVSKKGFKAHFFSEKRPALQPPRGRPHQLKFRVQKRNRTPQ

[2] = biological target: T1, Flag-tagged recombinant bone …; test: ratio of second order rate constants, 35S-BMP-1 complex formation
Method: (§1) 40 nM ³⁵S-labeled BMP-1 was incubated with 20, 40, 80, 160, and 240 nM plasma α₂M, or recombinant wild type α₂M or with 5, 10, 20, 40, and 80 nM b-α₂M at 37° C. in 50 mM Tris-HCl, pH 7.5, 100 mM NaCl and 10 mM CaCl₂. Reactions were stopped at 10, 30, 60, 90 and 120 minutes (plasma α₂M and recombinant wild type α₂M), or at 2, 5, 10, 20 and 30 minutes (b-α₂M) by adding. SDS-PAGE sample buffer and boiling 5 minutes at 95° C. Protein samples were separated on 7.5% acrylamide SDS-PAGE gels, which were then treated with EN³HANCE (DuPont) and exposed to film. Percentages of BMP-1 incorporated into high molecular weight complexes were determined by densitometry and kinetic parameters were determined essentially via the method of Enghild J, et al, “Interaction of human rheumatoid synovial collagenase (matrix metalloproteinase 1) and stromelysin (matrix metalloproteinase 3) with human alpha 2-macroglobulin and chicken ovostatin. Binding kinetics and identification of matrix metalloproteinase cleavage sites,” J. Biol. Chem. 264:8779-8785 (1989).
(§2) To obtain a quantitative comparison of the rates of interaction of BMP-1 with the various wild type and mutant forms of α₂M, we employed the methodology of Enghild et al., supra, which involves quantification of covalent proteinase-α₂M complex formation, subsequent to incubation of radiolabeled proteinase with α₂M.

[3] = biological target: T1, Flag-tagged recombinant bone …; test: time course of covalent complex formation of 40 nM 35S-BMP-1 with increasing b-α2M, SDS-PAGE densitometry (method of Enghild et al.)
Method: as §1, §2

B1: recombinant mutant α2-macroglobulin with the native bait region replaced by sequences flanking the human probiglycan BMP-1 cleavage site (b-α2M) (other)
chain: DYKDDDDKSVSGKPQYMVLVPSLLHTETTEKGCVLLSYLNETVTVSASLESVRGNRSLFTDLEAENDVLHCVAFAVPKSSSNEEVMFLTVQVKGPTQEFKKRTTVMVKNEDSLVFVQTDKSIYKPGQTVKFRVVSMDENFHPLNELIPLVYIQDPKGNRIAQWQSFQLEGGLKQFSFPLSSEPFQGSYKVVVQKKSGGRTEHPFTVEEFVLPKFEVQVTVPKIITILEEEMNVSVCGLYTYGKPVPGHVTVSICRKYSDASDCHGEDSQAFCEKFSGQLNSHGCFYQQVKTKVFQLKRKEYEMKLHTEAQIQEEGTVVELTGRQSSEITRTITKLSFVKVDSHFRQGIPFFGQVRLVDGKGVPIPNKVIFIRGNEANYYSNATTDEHGLVQFSINTTNVMGTSLTVRVNYKDRSPCYGYQWVSEEHEEAHHTAYLVFSPSKSFVHLEPMSHELPCGHTQTVQAHYILNGGTLLGLKKLSFYYLIMAKGGIVRTGTHGLLVKQEDMKGHFSISIPVKSDIAPVARLLIYAVLPTGDVIGDSAKYDVENCLANKVDLSFSPSQSLPASHAHLRVTAAPQSVCALRAVDQSVLLMKPDAELSASSVYNLLPEKDLTGFPGPLNDQDDEDCINRHNVYINGITYTPVSSTNEKDMYSFLEDMGLKAFTNSKIRKPKMCPQFWDFTLDDGPFMMNDEEASGADTSGVLDPDSVTPTYSAMVRKYFPETWIWDLVVVNSAGVAEVGVTVPDTITEWKAGAFCLSEDAGLGISSTASLRAFQPFFVELTMPYSVIRGEAFTLKATVLNYLPKCIRVSVQLEASPAFLAVPVEKEQAPHCICANGRQTVSWAVTPKSLGNVNFTVSAEALESQELCGTEVPSVPEHGRKDTVIKPLLVEPEGLEKETTFNSLLCPSGGEVSEELSLKLPPNVVEESARASVSVLGDILGSAMQNTQNLLQMPYGCGEQNMVLFAPNIYVLDYLNETQQLTPEIKSKAIGYLNTGYQRQLNYKHYDGSYSTFGERYGRNQGNTWLTAFVLKTFAQARAYIFIDEAHITQALIWLSQRQKDNGCFRSSGSLLNNAIKGGVEDEVTLSAYITIALLEIPLTVTHPVVRNALFCLESAWKTAQEGDHGSHVYTKALLAYAFALAGNQDKRKEVLKSLNEEAVKKDNSVHWERPQKPKAPVGHFYEPQAPSAEVEMTSYVLLAYLTAQPAPTSEDLTSATNIVKWITKQQNAQGGFSSTQDTVVALHALSKYGAATFTRTGKAAQVTIQSSGTFSSKFQVDNNNRLLLQQVSLPELPGEYSMKVTGEGCVYLQTSLKYNILPEKEEFPFALGVQTLPQTCDEPKAHTSFQISLSVSYTGSRSASNMAIVDVKMVSGFIPLKPTVKMLERSNHVSRTEVSSNHVLIYLDKVSNQTLSLFFTVLQDVPVRDLKPAIVKVYDYYETDEFAIAEYNAPCSKDLGNA
modifications: One subunit is given; cross-linking showed that the protein forms tetramers. The internal thioester and glycosylation are not carried by the letters.
notes: also called recombinant b-α2M; modified α2M
In the case of B1, the “pCP inhibitory activity, IC50” value [1] is reported as 1.88 nM, the “α2M inhibition of BMP-1 (fold enhancement over the native bait region)” value [1] is reported as ~25 fold and the “Relative effectiveness (against recombinant α2M = 1)” value [2] is reported as 23.7 fold. For the same binder, the “fold more effective in interacting with BMP-1 than wild type α2M from plasma (second order rate constants)” value [2] was 15.7 fold and the Ki [3] was 36.4 nM.
